Data reported in article PMC7857400 (2020).

Columns and labels:
[1] = target: T1, SARS-CoV-2 spike protein receptor binding domain (RBD) (SARS-CoV-2, UniProt P0DTC2 319-541); assay: SPR
[2] = target: T1, SARS-CoV-2 spike protein receptor …; assay: SPR; remark: listed apart in the source

B1: Nb21 (VHH)
VHH: QVQLVESGGGLVQAGGSLRLSCAVSGLGAHRVGWFRRAPGKEREFVAAIGANGGNTNYLDSVKGRFTISRDNAKNTIYLQMNSLKPQDTAVYYCAARDIETAEYTYWGQGTQVTVSS
Q: For B1, which koff [1] is on record?
A: < 1e-06 s⁻¹

Q: And the Kd [2]?
A: < 1 pM
